Test results taken from patent US20140087995A1 (published 2014).
Numbered stars: 1 amine (or outer) side, 2 acyl side, 3 side chain; on linkers, the order of the positions; unused ones are H or OH. Bridge positions count the residues as written; N and C are the ends. Side chains are listed from the residue outwards. Ends that are not written are not given here. * marks the point of attachment. C20 diacid = O=C(O)CCCCCCCCCCCCCCCCCCC(=O)*; C18 diacid = O=C(O)CCCCCCCCCCCCCCCCC(=O)*; γGlu = O=C(O)[C@H](CCC(=O)[*:2])N[*:1]; AEEA = NCCOCCOCC(=O)O

B1: N^ε1-[(4S)-4-carboxy-4-(17-carboxyheptadecanoylamino)butanoyl]-[Arg17,Pro21,Pro27,His34]-h-amylin (peptide)
peptide: K([γGlu-C18 diacid])CNTATCATQRLANFLRHSSPNFGAIPSSTNVGHNTY-NH2
modifications: disulfide 2-7; N-terminus assumed
SMILES: CC[C@H](C)[C@H](NC(=O)[C@H](C)NC(=O)CNC(=O)[C@H](Cc1ccccc1)NC(=O)[C@H](CC(N)=O)NC(=O)[C@@H]1CCCN1C(=O)[C@H](CO)NC(=O)[C@H](CO)NC(=O)[C@H](Cc1c[nH]cn1)NC(=O)[C@H](CCCNC(=N)N)NC(=O)[C@H](CC(C)C)NC(=O)[C@H](Cc1ccccc1)NC(=O)[C@H](CC(N)=O)NC(=O)[C@H](C)NC(=O)[C@H](CC(C)C)NC(=O)[C@H](CCCNC(=N)N)NC(=O)[C@H](CCC(N)=O)NC(=O)[C@@H](NC(=O)[C@H](C)NC(=O)[C@@H]1CSSC[C@H](NC(=O)[C@@H](N)CCCCNC(=O)CC[C@H](NC(=O)CCCCCCCCCCCCCCCCC(=O)O)C(=O)O)C(=O)N[C@@H](CC(N)=O)C(=O)N[C@@H]([C@@H](C)O)C(=O)N[C@@H](C)C(=O)N[C@@H]([C@@H](C)O)C(=O)N1)[C@@H](C)O)C(=O)N1CCC[C@H]1C(=O)N[C@@H](CO)C(=O)N[C@@H](CO)C(=O)N[C@H](C(=O)N[C@@H](CC(N)=O)C(=O)N[C@H](C(=O)NCC(=O)N[C@@H](Cc1c[nH]cn1)C(=O)N[C@@H](CC(N)=O)C(=O)N[C@H](C(=O)N[C@@H](Cc1ccc(O)cc1)C(N)=O)[C@@H](C)O)C(C)C)[C@@H](C)O
B2: N^ε1-[2-[2-[2-[[(4S)-4-carboxy-4-(19-carboxynonadecanoylamino)butanoyl]amino]ethoxy]ethoxy]acetyl]-[His14,Arg17,Pro21,Pro27]-h-amylin (peptide)
peptide: K([AEEA-γGlu-C20 diacid])CNTATCATQRLAHFLRHSSPNFGAIPSSTNVGSNTY-NH2
modifications: disulfide 2-7; N-terminus assumed
SMILES: CC[C@H](C)[C@H](NC(=O)[C@H](C)NC(=O)CNC(=O)[C@H](Cc1ccccc1)NC(=O)[C@H](CC(N)=O)NC(=O)[C@@H]1CCCN1C(=O)[C@H](CO)NC(=O)[C@H](CO)NC(=O)[C@H](Cc1c[nH]cn1)NC(=O)[C@H](CCCNC(=N)N)NC(=O)[C@H](CC(C)C)NC(=O)[C@H](Cc1ccccc1)NC(=O)[C@H](Cc1c[nH]cn1)NC(=O)[C@H](C)NC(=O)[C@H](CC(C)C)NC(=O)[C@H](CCCNC(=N)N)NC(=O)[C@H](CCC(N)=O)NC(=O)[C@@H](NC(=O)[C@H](C)NC(=O)[C@@H]1CSSC[C@H](NC(=O)[C@@H](N)CCCCNC(=O)COCCOCCNC(=O)CC[C@H](NC(=O)CCCCCCCCCCCCCCCCCCC(=O)O)C(=O)O)C(=O)N[C@@H](CC(N)=O)C(=O)N[C@@H]([C@@H](C)O)C(=O)N[C@@H](C)C(=O)N[C@@H]([C@@H](C)O)C(=O)N1)[C@@H](C)O)C(=O)N1CCC[C@H]1C(=O)N[C@@H](CO)C(=O)N[C@@H](CO)C(=O)N[C@H](C(=O)N[C@@H](CC(N)=O)C(=O)N[C@H](C(=O)NCC(=O)N[C@@H](CO)C(=O)N[C@@H](CC(N)=O)C(=O)N[C@H](C(=O)N[C@@H](Cc1ccc(O)cc1)C(N)=O)[C@@H](C)O)C(C)C)[C@@H](C)O
notes: also called compound 69
B3: N^ε1-[2-[2-[2-(19-carboxynonadecanoylamino)ethoxy]ethoxy]acetyl]-[Arg17,Pro21,Pro27,His34]-h-amylin (peptide)
peptide: K([AEEA-C20 diacid])CNTATCATQRLANFLRHSSPNFGAIPSSTNVGHNTY-NH2
modifications: disulfide 2-7; N-terminus assumed
SMILES: CC[C@H](C)[C@H](NC(=O)[C@H](C)NC(=O)CNC(=O)[C@H](Cc1ccccc1)NC(=O)[C@H](CC(N)=O)NC(=O)[C@@H]1CCCN1C(=O)[C@H](CO)NC(=O)[C@H](CO)NC(=O)[C@H](Cc1c[nH]cn1)NC(=O)[C@H](CCCNC(=N)N)NC(=O)[C@H](CC(C)C)NC(=O)[C@H](Cc1ccccc1)NC(=O)[C@H](CC(N)=O)NC(=O)[C@H](C)NC(=O)[C@H](CC(C)C)NC(=O)[C@H](CCCNC(=N)N)NC(=O)[C@H](CCC(N)=O)NC(=O)[C@@H](NC(=O)[C@H](C)NC(=O)[C@@H]1CSSC[C@H](NC(=O)[C@@H](N)CCCCNC(=O)COCCOCCNC(=O)CCCCCCCCCCCCCCCCCCC(=O)O)C(=O)N[C@@H](CC(N)=O)C(=O)N[C@@H]([C@@H](C)O)C(=O)N[C@@H](C)C(=O)N[C@@H]([C@@H](C)O)C(=O)N1)[C@@H](C)O)C(=O)N1CCC[C@H]1C(=O)N[C@@H](CO)C(=O)N[C@@H](CO)C(=O)N[C@H](C(=O)N[C@@H](CC(N)=O)C(=O)N[C@H](C(=O)NCC(=O)N[C@@H](Cc1c[nH]cn1)C(=O)N[C@@H](CC(N)=O)C(=O)N[C@H](C(=O)N[C@@H](Cc1ccc(O)cc1)C(N)=O)[C@@H](C)O)C(C)C)[C@@H](C)O
notes: also called compound 91
B4: N^ε1-[(4S)-4-carboxy-4-[[(4S)-4-carboxy-4-(19-carboxynonadecanoylamino)butanoyl]amino]butanoyl]-[Asp14,Arg17,Pro21,Pro27,Arg35]-h-amylin (peptide)
peptide: K([γGlu-γGlu-C20 diacid])CNTATCATQRLADFLRHSSPNFGAIPSSTNVGSRTY-NH2
modifications: disulfide 2-7; N-terminus assumed
SMILES: CC[C@H](C)[C@H](NC(=O)[C@H](C)NC(=O)CNC(=O)[C@H](Cc1ccccc1)NC(=O)[C@H](CC(N)=O)NC(=O)[C@@H]1CCCN1C(=O)[C@H](CO)NC(=O)[C@H](CO)NC(=O)[C@H](Cc1c[nH]cn1)NC(=O)[C@H](CCCNC(=N)N)NC(=O)[C@H](CC(C)C)NC(=O)[C@H](Cc1ccccc1)NC(=O)[C@H](CC(=O)O)NC(=O)[C@H](C)NC(=O)[C@H](CC(C)C)NC(=O)[C@H](CCCNC(=N)N)NC(=O)[C@H](CCC(N)=O)NC(=O)[C@@H](NC(=O)[C@H](C)NC(=O)[C@@H]1CSSC[C@H](NC(=O)[C@@H](N)CCCCNC(=O)CC[C@H](NC(=O)CC[C@H](NC(=O)CCCCCCCCCCCCCCCCCCC(=O)O)C(=O)O)C(=O)O)C(=O)N[C@@H](CC(N)=O)C(=O)N[C@@H]([C@@H](C)O)C(=O)N[C@@H](C)C(=O)N[C@@H]([C@@H](C)O)C(=O)N1)[C@@H](C)O)C(=O)N1CCC[C@H]1C(=O)N[C@@H](CO)C(=O)N[C@@H](CO)C(=O)N[C@H](C(=O)N[C@@H](CC(N)=O)C(=O)N[C@H](C(=O)NCC(=O)N[C@@H](CO)C(=O)N[C@@H](CCCNC(=N)N)C(=O)N[C@H](C(=O)N[C@@H](Cc1ccc(O)cc1)C(N)=O)[C@@H](C)O)C(C)C)[C@@H](C)O
notes: also called compound 52

Key:
[1] = biological target: T1, human calcitonin receptor (human, UniProt P30988 25-474); assay: SPA radioligand competition (125I-calcitonin), membranes of BHK cells with human calcitonin receptor
T1 construct: whole, on cells; also called hCTR; hCT
T1 sequence (looked up): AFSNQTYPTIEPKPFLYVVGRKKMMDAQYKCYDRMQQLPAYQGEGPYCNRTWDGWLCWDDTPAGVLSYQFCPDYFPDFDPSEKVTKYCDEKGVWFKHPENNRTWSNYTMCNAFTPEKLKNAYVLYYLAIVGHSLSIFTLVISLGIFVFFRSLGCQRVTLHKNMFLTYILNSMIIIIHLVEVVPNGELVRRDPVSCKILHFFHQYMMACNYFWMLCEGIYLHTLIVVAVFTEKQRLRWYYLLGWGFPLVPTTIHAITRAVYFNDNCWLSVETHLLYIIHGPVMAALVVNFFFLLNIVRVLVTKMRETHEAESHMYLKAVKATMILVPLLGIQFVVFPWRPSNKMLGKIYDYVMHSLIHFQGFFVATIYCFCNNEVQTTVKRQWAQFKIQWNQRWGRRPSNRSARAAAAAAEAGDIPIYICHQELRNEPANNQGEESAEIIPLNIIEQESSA
Outline: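 BHK hCTR membranes 35 ng/μL + SPA beads 0.05 mg/well; buffer 50 mM Hepes pH 7.4, 1 mM CaCl2, 5 mM MgCl₂, 0.1% OA, 0.02% Tween20. 120 min, 25° C., shaking. Scintillation count; IC50 by one-site binding competition.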

[2] = biological target: T1, human calcitonin receptor; assay: ratio of IC50 at human calcitonin receptor to IC50 at human amylin receptor (SPA competition assays)
Outline: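 Membranes (35 ng/μL final) + SPA beads, 50 mM Hepes pH 7.4 buffer with 1 mM CaCl2, 5 mM MgCl₂, 0.1% OA, 0.02% Tween20; 120 min, 25° C, shaking; centrifuged, counted; IC₅₀ by one-site binding competition.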

[3] = biological target: T2, human calcitonin receptor (human, UniProt P30988 25-474); assay: IC50 at hCTR divided by IC50 at hAmylin-R (SPA competition assays V and VII)
T2 construct: whole, on cells; Assayed as cell membranes of BHK tk'ts 13 cells stably transfected with the human calcitonin receptor (Assay VII); also called hCTR; hCT
T2 sequence (looked up): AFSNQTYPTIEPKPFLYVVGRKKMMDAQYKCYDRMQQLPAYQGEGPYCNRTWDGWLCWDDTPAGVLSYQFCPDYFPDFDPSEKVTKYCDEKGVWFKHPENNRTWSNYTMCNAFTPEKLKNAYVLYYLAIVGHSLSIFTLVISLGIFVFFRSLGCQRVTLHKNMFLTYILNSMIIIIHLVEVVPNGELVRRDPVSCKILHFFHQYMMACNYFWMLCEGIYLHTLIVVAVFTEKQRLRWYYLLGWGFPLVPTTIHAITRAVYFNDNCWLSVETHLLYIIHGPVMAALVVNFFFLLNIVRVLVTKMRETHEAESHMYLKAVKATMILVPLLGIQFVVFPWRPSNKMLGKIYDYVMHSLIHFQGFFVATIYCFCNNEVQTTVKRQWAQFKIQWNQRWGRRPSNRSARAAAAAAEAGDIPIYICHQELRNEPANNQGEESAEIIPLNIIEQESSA
Description: The resulting pellet was resuspended, homogenized and centrifuged (20.000 rpm, 15 min) in a buffer containing 20 mM Na-HEPES and 0.1 mM EDTA (pH 7.4, buffer 2). The resulting pellet was resuspended in buffer 2 and protein concentration was measured (BCA protein Assay, Pierce). The homogenate was kept cold during the whole procedure. The membranes were kept at −80° C. until use. The assay was performed in a 384 well Optiplate (PerkinElmer) in a total volume of 40 ul. Membranes were mixed with SPA beads. Final concentration of membranes 35 ng/μL final and SPA beads was 0.05 mg/well. Test-compounds were dissolved in DMSO and further diluted in assay buffer (50 mM Hepes, pH 7.4, 1 mM CaCl2, 5 mM MgCl₂, 0.1% OA and 0.02% Tween20). […] The final mixture was incubated with shaking at 400 rpm for 120 min at 25° C. prior to centrifugation (1500 rpm, 10 min). Samples were analyzed on TopCounter™ (Packard). The IC₅₀ was calculated using (one site binding competition analysis) GraphPad Prism5 as a measure of receptor affinity.
Membranes were prepared in the following way; the cells were rinsed with PBS and incubated with Versene for approximately 5 min before harvesting. The cells were flushed with PBS and the cell-suspension was centrifuged for 5 min at 1000 rpm. Cells were homogenized (Ultrathurrax) in a buffer containing 20 mM Na-HEPES and 10 mM EDTA (pH 7.4) and centrifuged at 20.000 rpm for 15 min. The resulting pellet was resuspended, homogenized and centrifuged (20.000 rpm, 15 min) in a buffer containing 20 mM Na-HEPES and 0.1 mM EDTA (pH 7.4, buffer 2). The resulting pellet was resuspended in buffer 2 and protein concentration was measured (BCA protein Assay, Pierce). The homogenate was kept cold during the whole procedure. The membranes were kept at −80° C. until use. Assay was performed in a 384 well Optiplate (PerkinElmer) in a total volume of 40 ul. Membranes were mixed with SPA beads.

[4] = biological target: T2, human calcitonin receptor; assay: SPA competition vs 125I-calcitonin, membranes of BHK cells with human calcitonin receptor (Assay VII)
Description: Membranes were prepared in the following way; the cells were rinsed with PBS and incubated with Versene for approximately 5 min before harvesting. The cells were flushed with PBS and the cell-suspension was centrifuged for 5 min at 1000 rpm. Cells were homogenized (Ultrathurrax) in a buffer containing 20 mM Na-HEPES and 10 mM EDTA (pH 7.4) and centrifuged at 20.000 rpm for 15 min. The resulting pellet was resuspended, homogenized and centrifuged (20.000 rpm, 15 min) in a buffer containing 20 mM Na-HEPES and 0.1 mM EDTA (pH 7.4, buffer 2). The resulting pellet was resuspended in buffer 2 and protein concentration was measured (BCA protein Assay, Pierce). The homogenate was kept cold during the whole procedure. The membranes were kept at −80° C. until use. Assay was performed in a 384 well Optiplate (PerkinElmer) in a total volume of 40 ul. Membranes were mixed with SPA beads. Final concentration of membranes 35 ng/μL final and Final concentration of SPA beads was 0.05 mg/well. Test-compounds were dissolved in DMSO and further diluted in assay buffer (50 mM Hepes, pH 7.4, 1 mM CaCl2, 5 mM MgCl₂, 0.1% OA and 0.02% Tween20). […] The final mixture was incubated for 120 min with shaking at 400 rpm at 25° C. prior to centrifugation (1500 rpm, 10 min). Samples were analyzed on TopCounter™ (Packard). The […] was calculated using (one site binding competition analysis) GraphPad Prism5 as a measure of receptor affinity.

Binder | IC50 [1] | Ratio hCT/hAmylin binding [2] | Ratio hCT/hAmylin binding [3] | IC50 [4]
B1 | 22.7 nM | 59.4 |  | 
B2 |  |  | 65.3 | 8.68 nM
B3 |  |  | 101 | 12 nM
B4 |  |  |  | 56.9 nM
